One molecule from patent US20210277137A1 (AbbVie / Abbott, published 2021) can be followed below.

The target in one test is human CD40 on cells (human, UniProt P25942 21-277). Nature of the test: cell-based or functional assay.
For test [1], the target named is T1, human FcγRI (CD64) on CHO cells (human, UniProt P12314 16-374).
T1 construct: whole, on cells
Nature of the test: flow cytometry on CHO cells stably expressing human FcγRI (CD64), detection with fluorescence-conjugated anti-human F(ab')2 secondary antibody. How it is done: (§1) Increasing amounts of anti-CD40 human IgG₁ antibodies and their Fc variants were incubated with CHO cells stably expressing different human Fcγ receptors, including FcγRI (CD64), FcγRIIA (CD32a), FcγRIIB (CD32b), and FcγRIIIA (CD16) with either F or V polymorphism. The binding was detected with a fluorescence-conjugated anti-human F(ab′)2 specific secondary antibody (Jackson ImmunoResearch).
For orientation: A flow cytometer gives signals particle by particle.

Test [2] concerns the target T2, human FcγRIIA (CD32a) on CHO cells (human, UniProt P12318 34-317).
T2 construct: whole, on cells
T2 sequence (looked up): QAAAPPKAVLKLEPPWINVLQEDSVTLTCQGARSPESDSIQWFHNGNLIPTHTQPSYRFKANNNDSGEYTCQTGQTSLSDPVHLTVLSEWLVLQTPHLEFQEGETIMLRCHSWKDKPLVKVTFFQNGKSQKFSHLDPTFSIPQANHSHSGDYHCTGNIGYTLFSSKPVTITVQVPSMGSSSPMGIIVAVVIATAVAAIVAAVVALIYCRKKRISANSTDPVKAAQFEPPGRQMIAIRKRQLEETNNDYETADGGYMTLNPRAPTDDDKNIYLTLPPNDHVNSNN
Nature of the test: flow cytometry on CHO cells stably expressing human FcγRIIA (CD32a), detection with fluorescence-conjugated anti-human F(ab')2 secondary antibody. How it is done:
as §1

In test [3] the target is T3, human FcγRIIB (CD32b) on CHO cells (human, UniProt P31994 43-310).
T3 construct: whole, on cells
T3 sequence (looked up): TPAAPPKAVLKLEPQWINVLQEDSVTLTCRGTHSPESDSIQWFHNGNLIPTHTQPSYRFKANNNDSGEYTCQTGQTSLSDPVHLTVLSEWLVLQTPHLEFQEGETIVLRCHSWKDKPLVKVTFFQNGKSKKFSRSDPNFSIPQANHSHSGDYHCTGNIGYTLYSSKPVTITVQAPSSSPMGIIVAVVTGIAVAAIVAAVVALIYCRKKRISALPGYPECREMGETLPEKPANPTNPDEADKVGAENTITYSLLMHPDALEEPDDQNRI
Nature of the test: flow cytometry on CHO cells stably expressing human FcγRIIB (CD32b), detection with fluorescence-conjugated anti-human F(ab')2 secondary antibody. How it is done:
as §1

The target of test [4] is T4, human FcγRIIIA (CD16) with F polymorphism on CHO cells (human, UniProt P08637 17-254).
T4 construct: whole, on cells; also called CD16F
T4 sequence (P08637 17-254): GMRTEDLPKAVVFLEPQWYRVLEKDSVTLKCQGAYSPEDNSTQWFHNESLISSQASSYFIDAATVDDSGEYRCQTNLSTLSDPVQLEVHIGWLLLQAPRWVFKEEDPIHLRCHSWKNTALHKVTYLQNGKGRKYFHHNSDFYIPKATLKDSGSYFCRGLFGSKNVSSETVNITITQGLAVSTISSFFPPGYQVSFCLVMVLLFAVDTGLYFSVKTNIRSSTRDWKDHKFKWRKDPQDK
Nature of the test: flow cytometry on CHO cells stably expressing human FcγRIIIA (CD16F), detection with fluorescence-conjugated anti-human F(ab')2 secondary antibody. How it is done: as §1

Test [5] deals with T5, human FcγRIIIA (CD16) with V polymorphism on CHO cells (human, UniProt P08637 17-254).
T5 construct: whole, on cells; V allotype; also called CD16V
T5 sequence (P08637 17-254 F176V): as the sequence (P08637 17-254) above, with F160V counted along it
Nature of the test: flow cytometry on CHO cells stably expressing human FcγRIIIA (CD16V), detection with fluorescence-conjugated anti-human F(ab')2 secondary antibody. How it is done: as §1

The target of test [6] is T6, CD40-human Fc (huFc) fusion protein (Creative BioMart) (human, UniProt P25942 21-193).
T6 construct: bought; also called CD40-huFc; not shown: human Fc
T6 sequence (P25942 21-193 limits assumed): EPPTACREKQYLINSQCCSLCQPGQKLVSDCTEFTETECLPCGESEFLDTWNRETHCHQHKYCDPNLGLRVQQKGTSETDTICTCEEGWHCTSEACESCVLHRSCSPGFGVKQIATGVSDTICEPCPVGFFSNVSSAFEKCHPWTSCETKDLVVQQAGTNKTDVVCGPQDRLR
Nature of the test: ELISA: antibody titrated into 1 µg/mL CD40-huFc, mixture added to plate coated with HA-tagged CD40L, bound complex detected with HRP anti-human Fc; half-maximal enhancement of the signal of CD40-huFc on CD40L. From the text:
After development with TMB (3, 3′, 5, 5′-tetramethylbenzidine) substrate, the plates were read at OD₄₅₀.
(In general: In an ELISA, binding on a coated surface is turned into a signal by an enzyme label.)

A word on the EC50 (read off the curve): it is the concentration giving half of the maximal effect.

Chain of human CD40 on cells (P25942 21-277 limits assumed): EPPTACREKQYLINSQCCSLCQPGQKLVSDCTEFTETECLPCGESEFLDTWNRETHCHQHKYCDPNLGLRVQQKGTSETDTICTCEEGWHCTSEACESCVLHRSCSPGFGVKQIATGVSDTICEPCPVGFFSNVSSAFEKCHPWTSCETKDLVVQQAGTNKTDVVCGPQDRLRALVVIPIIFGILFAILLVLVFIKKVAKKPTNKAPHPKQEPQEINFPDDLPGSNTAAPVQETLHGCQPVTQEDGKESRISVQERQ
T1 sequence (P12314 16-374): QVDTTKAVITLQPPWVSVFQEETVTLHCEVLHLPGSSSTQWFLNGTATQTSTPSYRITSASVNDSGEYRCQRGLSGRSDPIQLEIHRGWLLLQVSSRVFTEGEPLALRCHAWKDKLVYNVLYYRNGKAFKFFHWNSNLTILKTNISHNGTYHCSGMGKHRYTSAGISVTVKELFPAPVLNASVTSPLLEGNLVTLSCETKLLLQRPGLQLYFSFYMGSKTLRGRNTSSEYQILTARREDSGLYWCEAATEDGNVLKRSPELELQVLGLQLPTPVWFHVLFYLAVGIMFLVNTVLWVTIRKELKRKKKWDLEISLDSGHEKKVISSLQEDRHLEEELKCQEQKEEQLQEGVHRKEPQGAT

B1: Humanized muAb9 #5 (antibody, human IgG1, kappa)
heavy: not shown
light: DAVMTQTPLSLSVTPGQPASISCRSSQSLENTNGNTFLNWYLQKPGQSPQLLIYRVSNRFSGVPDRFSGSGSGTDFTLKISRVEAEDVGVYYCLQVTHVPFTFGQGTKLEIKRTVAAPSVFIFPPSDEQLKSGTASVVCLLNNFYPREAKVQWKVDNALQSGNSQESVTEQDSKDSTYSLSSTLTLSKADYEKHKVYACEVTHQGLSSPVTKSFNRGEC
notes: wild type human IgG1/kappa; also called huAb9-5; huAb9-5 with wild type huIgG1
For B1, in the test with human CD40 on cells, the “Maximal activation (OD655) in HEK293 blue CD40 NFκB reporter cells” value amounted to 0.67 OD655. Further, the “NFκB activation EC50 (SEAP, OD655) in HEK293 blue CD40 NFκB reporter cells” value with human CD40 on cells turned out to be 1.13 µg/mL. The “EC50 (read off the curve)” value is around 0.5 µg/mL in test [1] and around 0.2 µg/mL in test [6]. Besides, the binding result was “binds” in test [2], “no binding (tested: 100 µg/mL)” in test [3], “binds” in test [4] and “binds” in test [5].
